Measurements as given in the nanobody polyreactivity screen of Harvey et al. (2022).

Assay: yeast display, Sf9 membrane polyspecificity reagent, FACS + sequencing; frameworks hold sequencing errors
In short: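 Sorting gates, low and high (top ~1%), were placed on anti-HA fluorescence to track expression and on streptavidin fluorescence to track reagent binding. A clone's polyreactivity label is taken from the gate it came out of. The reagent was 10% biotinylated, detergent-solubilized Sf9 membrane, applied for 1 hour at 4 °C to galactose-induced yeast display cells.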

| Sequence | polyreactivity (PSR sort gate) |
| --- | --- |
| QVQLVESGGGLVQAGGSLRLSCAASGSTIYDNAMGWYRQATGKESELVAAITWSVGRTYYADSVKGRFTISRDNAKNTVYLQMNSMKPEDTAVYYCAARSQDRTYFQVFVSDTPYNYWGQGTQVTVSS | low polyreactivity |
| QVQLVESGGGLVQAGGSLRLSCAASGSTFYPNAMGWYRQAPGKERELVAAISRSGGSTYYADSVKGRFTISRDNAKNTVYLQMNSLKPEDTAVYYCAADGRSPARYDYWGQGTQVTVSS | low polyreactivity |
| QVQLVESGGGLVQAGGSLRLSCAASGGTFAAYAMGWYRQAPGKERELVAAIDSGGTTKYADSVKGRFTISRDNAKNTVYLQMNSLKPEDTAVYYCAKVTTGFGVETYHGKGNDYWGQGTQVTVSS | low polyreactivity |
| QVQLVESGGGLVQAGGSLRLSCAASGRIFGYYTMGWYRQAPGKEREFVAAISYRGGSTYYADSVKGRFTISRDNAKNTVYLQKNSLKPEDTAVYYCNARKSYYTVRSYDSWGQGTQVTVSS | high polyreactivity |
| RVQLQESGGGLVQEGGSLRLSCAPSSTISRDFYMGWYRQAPGKELEFVASITYGASTNYADSVKGRVTISRDNANNTVYLQMNSLKPEDTAVYYSNAKQQPYGGTDSDYWGQGTQVSVSS | low polyreactivity |
| QVQLVESWGGLVQAGGSLRLSCAASGSTFVKNAMGWYRQAPGKERELVAAISYRGGRTYYADSVKGRYTISRDNAKNTVYLQMNSLKPEDTAVYYCNARYRTPSFIRMGYWGQGTQVTVSS | high polyreactivity |
| QVQHGESGGGLVQAGGRLRLICAASGSISVWYVMGWYRQAPGKERELVAAITRSGGSTFYADSVKGRFTISRDNAKNTVYLEMNSLKPEDTAVYYCAADFPSLYVWYGYGWYKYDYWGQGTQVTVSS | low polyreactivity |
| QVQLVESGGGLVQAGGSLRLSCAASGSTFAVNAMGWYRQAPGKERELVAAITSGGNTYADSVKGRFTISRDNAKNTVYLQMNSLKPEDTAVYYCAAALTEVVYWIYDYWGQGTQVTVSS | low polyreactivity |
| QVQLVESGGGLVQAGGSLRLSCAASGSIFRKYAMGWYRQAPGKEREFVAVITTDGSTNYADSVKRRFTISRDNAKNTVYLQMNSLKPEDTAVYYCNAFRSSIGTDNDFWGQGTQVTVSS | low polyreactivity |
| QVQLVESGGGLVQAGGSLRLSCAASGSIFHGYAMGWYRTAPGKERELVAAISYTGGRTYYADSVKGRFTISRDNAMNTVYLQMNSLKPEDTAVYYCAAHDYWGQGTQVTVSS | high polyreactivity |
| QVQLVESGGGLVQAGGILRISCAASGFIFYPYAMGWYRQAPGKERELVATIDGGGSTYYADSVKGRFTISRDNAKNTVYLQMNSLKPEDSAVYYCDASQWSNYDNWGQGNQVTVSS | low polyreactivity |
| QVQLVESGGGLVQAGGSLRLSCASSGLTFWPYVKGWYRQAPGKERELVAAIEDTGITYYADSVKGRFTISRDNAKNTVYLQMNSLTPDDTAVYYCATDWDYYFPWIYPSDAGPEDGYWGQGTQVTVSS | low polyreactivity |
| QVQLVESGGGLVQAGGSLRLSCAASGITFSRYAMGWYRQAPGKERELVAAITVSGGTTYYADSVKGRFTISRDNAKNTVYLQMNSLKPEDTAVYYCAAVRRKTAGGLEDYWGQGTQVTVSS | high polyreactivity |
| QVQLVESGGGLVQAGGSLRLSCAASGFTFRYYTMVWYRQAPGKERELVAAITSSGGNTYYADSVKGRFTISRDNAKNTVYLQMNSLKPEDTAVYYCAADAYPQYNGWSWMDYWGQGTQVTVSS | low polyreactivity |
| QVQLVESGGGLVQAGGSLRLSCAASGITFSRNVMGWYRQAPGKERELVAAISRSGGTTTYADSVKGRFTISRDNAKNTVYLQMNSLKPEDTAVYYCNVYDYPTYDYWGQGTQVSVSS | low polyreactivity |
| QVHHVESGGGLVQAGGSLRLSCAASGSTIDEYAMGWYRQAPGKERELVAAIDWSTGSTYYADSVKGRFTISRDNAKNTVYLQMNSLKPEDTAVYYCAADSGYGPYYYWGQGTQVTVSS | high polyreactivity |
| QVQLVESGGGLVQAGGSLRLSCAASGSTFVKNVMGWYRQAPGKERELVAGITRGGSTYYADSVKGRFTISRDNAKNTVYLQMNSLKPEDTAVYYCNRVRYPSYDYWGQGTQVTVSS | high polyreactivity |
| QVQLVESGGGLVQAGGSLRIRCAASGRIFRTNAMGWYRQAPGKERELVAAISDSGADTSYADSVKGRFSISRDNAKNTDYLQMNSLKPEDTAVDYCNRGRVYYRYLKDYDYWGQGTQVTVSS | low polyreactivity |
| QVQLVESGGGIVQAGGSLRLSCPASGLTFIYYAMGWYRQAPGKERELVAAITRGTSTYYADSVKGRFTISRDNAKNTVYLQMNSLKPEDTAVYDCAAKSRRVRTYNYWGQGTQVTVSS | high polyreactivity |
| QVQLVESGGGLVQAGGSLRLSCAASGFTFSVYAMGWYRQAPGKERELVAAISRGGGGTYYADSVKGRFTISRDNAKNTVYLQMNSLKPEDTAVYYCNAAGYPQYKGYDYWGQGTQVTVSS | high polyreactivity |
| QVQLVESGGGLVQAGGSLRLSWAASGSSFGYAMGWYRQGPGKERELVAAISFSGVSTYYADSVKGRFTISRDNAKHTVYLQMNSLKPEDTAVYYCNAYSDGDEDYWGQGTQVTVSS | low polyreactivity |
| QVQLVESGGGLVQAGGSLRLSCAASGSIYRYAMGWYRQAPGKEREFVAAITWNGGSTYYADSVKGRFTISRDNAKNTVYLQMNSLKPEDTAVYSCAAYEKRLGYDYWGQGTQVTVSS | high polyreactivity |

| Sequence | polyreactivity (PSR sort gate) |
| --- | --- |
| QVQLVESGGGVVQAGGSLRLSCAASGSTFGYYTMGWNRQAPGKERELVAAISRSGCRTYYADSVKGRFTISRDNAMNAVYLHMTSLKPDYTAVYYCNADGTRYAGDDYWGQGSQVTVSS | high polyreactivity |
| QVQLVESGGGLVQAGGSLRISCAASGSTFSNYAMGWYRQAPGKERELVAAINSGGRTKYADSVKGRFTISRDNAKNSVYLQMNSLKPEDTAVYYCAKRIENFSGSLAGRWYDYWGQGTQVTVSS | high polyreactivity |
| QVQLVESGGGLVQAGGSLRLSCAASGSTFYRYAMGWYRQAPGKERELVAAISKRGGSTYYADSVKGRFTISRDNAKNTVYLQMNSLKPEDTAVYYCAADPFHYGGGDDYWGQGTQVTVSS | high polyreactivity |
| QVQLKESCGGLVQAGGSLRLSCAASGTITYAPHKGWYRQAPGKERELVAGITIGGTTYYADSVKGRFTISRDNAKNTVYLQMNSLSPGDTAVYYCAAHSEQYTPFYYWGQGTQVTVSS | low polyreactivity |
| QVQLVESGGGLVQAGGSLRLSCAASGFTFLRYAMGWYRQAPGKERELVAAITRGGTTYYADSVKGRFTISRDNAKNTVYLQMNSLKPEDTAVYYCNTLTSYTRYNYWGQGTQVTVSS | high polyreactivity |
| QVQLGESVGGLVQAGGSLRLSCAASGFTSRKNAMGWYRQAPGKERELVAAITQSSGRTYYADSVKGRFTISRVNAKNTVYLQMNRLKPEDTAVYYCAARRGGEDDYWGQGTQVTVSS | low polyreactivity |
| QVQLVESGGGLVQAGGSLRLSCAASGSIFVDYAMGWSRPAPGKERELVVAISLSGGSTYYADSVKGRFTISRDNAKNTVYLQMNSLKPEDTAVYYCNAELIKGTYRWYEGGSQYGYWGHGTQVTVSS | low polyreactivity |
| QVQLVESGGGLVQAGGSLRLSCAASGSTFRVNVMGLYRQAPGKERELVAAIDSGGSTYYADSVKGRFTISRDNAKNTVYLQMNSLKPEYTAVYYCNSRVDSPSPYDYWGQGTQVTVSS | low polyreactivity |
| QVQLVESGGRLVQAGGSLRLSCPDSGSTFILNAMGWYRQAHGKERELVATISSSVTSTYYADSVKWRFTISRDHAKNTVYLQMNSLKPEDTAVYYCNADYYTTSYLQRFYHYGVEYDYLGQGTQVTVSS | low polyreactivity |
| QVQLVESGGGLVQAGGSLRLSCSAYGRTFNSYAMGWYRQAPGKERELVATISSGGSTKYADSVKGRFTISRDNAKNTVYLQMNSLKPEDTAVYYCNKVFPNLYIYVVRGLIEMDYWGQGTQVTVSS | low polyreactivity |
| QVQLVESGGGLVQAGGSLRLSCAASGIIFYWNAMGWYRQAPGKEREFVASISGSGGSTYADSVKGRFTISRDNAKKTVYLQMNSLKPEDTAVYYCAADFSNVGVQHDYYWGQGTQVTVSS | high polyreactivity |
| QVQLVESGGCLVQAGGSLRLSCAASGRIVYPYAMGWYRQAPGKERELVAAISSSGGSTYYADSVKGRFTISRDNAKNTVYLQMNSLKPDDTAVYYCAAQEFQKRLGGSWCRYDYWGQGTQVNVSS | high polyreactivity |
| QVQLVESGGGLVQAGGSLRLSCAASGRTFWRYAMGWYRQAPGKEREVVAAISRRGDSTYYADSVKGRFTISRDYAKNTVYLQMNSLKPEDTAVYYCNKGYAYSHDDPYWYSPRYDYWGQGTQVTVSS | low polyreactivity |
| QVQLVESGGGLVQAGGSLRLSCAASGSTFIDYAMGWYRQAPGKERELVAAIDQGGGRTYYADSVKGRFTISRDNAKNTVYLQMNSLKPEDTAVYYCAATSRVVGEGGYEYWGQGTQVTVSS | low polyreactivity |
| QVQLVESGGGLVQAGGSLRLSCAASGLTFRYYAMGWYRQAPGKERELVAAINYSGGGTYYADSVKGRFTISRDNAKNTVYLQMNSLKPEDTAVYYCNAAYRGYYYWGQGTQVTVSS | high polyreactivity |
| QVQLVESGGGLDQAGGSLRLSCAASGSTYSYYAMGWYRQAPGKERELVAAISRSGGSTYYADSVKGRFTISRDNAKNTVYLQMNCMKPEDTAVYYCAARGQYRYSFGDYSWGQGTQVTVSS | high polyreactivity |
| QVQLVESGGGLVQAGGSLRLSCAASGLIFKYYALGWYRQAPGKERELVAAMSWSGGSTYYADSVKGRFTISRDTAKNTVYLQMNSLKPEDTAVYYCAADSWIYSYSALSIYDYWGQGTQVTVSS | high polyreactivity |
| QVQLVESGGGLVQAGGSLRLSCAASGSTFDKYVMGWYRQAPGKERELVAVIDWRDGTTYYADSVKGRFTISRDNAKNTVYLQMNSLKPEDTAVYYCNADNDNYGDVYPYYTAGYGYWGQGTQVTVSS | low polyreactivity |
| QVQLVESGGGLVQAGGSLRLSCAASGFTFRFYAMGRYRQAPGKERELVAAISGSGGSTYYADSVKGRFTISRDNAKNTVFLQMNSLKPEDTAVYYCNAGRWLYWYDRSDYWGQGTQVTVSS | high polyreactivity |
| QVQLVESGGGLVQAGGSLRLSCAASGFHFGSYAMGWNRQAPGKERELVASISSAGRTYYADSVKGRFTISRDNAKNTVYSQMNSLKPEDTAVYYCAAESGYPVYTYVSSGDYWGQGTQVTVSS | low polyreactivity |
| QVQLVESGGGLVQAGGSLRLICAASGSTFNTYAMGRYRQAPGKERELVAAITWSGGRTYYADSVKGRFTISRDNAKNTVYLQMNSLKPEDTAVYYCAKGKGPTEYDYWGQGTQVTVSS | high polyreactivity |
